Article PMC10538476

Target: Human macrophage galactose-type lectin (MGL) isoform 2 extracellular domain (human)
Assay: SAXS; MGL-ECD at 1 mg/mL in 25 mM Tris pH 8, 150 mM NaCl, 4 mM CaCl2, 25°C; ESRF BM29 beamline; oligomeric state from the estimated molecular weight

In the case of “Human macrophage galactose-type lectin (MGL) isoform 2 extracellular domain (domain or fragment)”, the stoichiometry N is reported as 3.
